The experiment concerns the target SH3 domain of Src (residues 83–141) with C-terminal FLAG-tag (chicken, UniProt P00523 83-141). The experiment is described as follows: bimane fluorescence.

B1: βarr1-MC-393 V70C labeled with monobromobimane (domain or fragment, rat, UniProt P29066 1-393, looked up)
chain: MGDKGTRVFKKASPNGKLTVYLGKRDFVDHIDLVDPVDGVVLVDPEYLKERRVYVTLTAAFRYGREDLDCLGLTFRKDLFVANVQSFPPAPEDKKPLTRLQERLIKKLGEHAYPFTFEIPPNLPSSVTLQPGPEDTGKAIGVDYEVKAFVAENLEEKIHKRNSVRLVIRKVQYAPERPGPQPTAETTRQFLMSDKPLHLEASLDKEIYYHGEPISVNVHVTNNTNKTVKKIKISVRQYADIVLFNTAQYKVPVAMEEADDTVAPSSTFSKVYTLTPFLANNREKRGLALDGKLKHEDTNLASSTLLREGANREILGIIVSYKVKVKLVVSRGGLLGDLASSDVAVELPFTLMHPKPKEEPPHREVPESETPVDTNLIELDTNDDDIVFEDFAR
modifications: monobromobimane (mBr) on C70
With B1, the binding result was “binds”.

Source of the values: article PMC11312540 (bioRxiv, 2024).
